# From IntAct's records for PubMed 15105431
# B1: T-cell surface antigen CD2 (Homo sapiens), P06729 (parent)
# chain: MSFPCKFVASFLLIFNVSSKGAVSKEITNALETWGALGQDINLDIPSFQMSDDIDDIKWEKTSDKKKIAQFRKEKETFKEKDTYKLFKNGTLKIKHLKTDDQDIYKVSIYDTKGKNVLEKIFDLKIQERVSKPKISWTCINTTLTCEVMNGTDPELNLYQDGKHLKLSQRVITHKWTTSLSAKFKCTAGNKVSKESSVEPVSCPEKGLDIYLIIGICGGGSLLMVFVALLVFYITKRKKQRSRRNDEELETRAHRVATEERGRKPHQIPASTPQNPATSQHPPPPPGHRSQAPSHRPPPPGHRVQHQPQKRPPAPSGTQVHQQKGPPLPRPRVQPKPPHGAAENSLSPSSN
# partner: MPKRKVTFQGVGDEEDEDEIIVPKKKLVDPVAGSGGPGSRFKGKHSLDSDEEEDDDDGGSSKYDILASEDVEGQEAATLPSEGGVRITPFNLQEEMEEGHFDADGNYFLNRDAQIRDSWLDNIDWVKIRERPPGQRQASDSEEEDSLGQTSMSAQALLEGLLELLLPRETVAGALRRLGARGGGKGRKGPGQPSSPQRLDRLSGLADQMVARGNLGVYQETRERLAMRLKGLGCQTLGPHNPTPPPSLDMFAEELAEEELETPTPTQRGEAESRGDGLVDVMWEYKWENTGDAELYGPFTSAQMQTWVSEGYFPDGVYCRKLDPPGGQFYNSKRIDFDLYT
# Variants of: B1
# Settings: with cd2b2_human CD2BP2, O95400
row,effect of a mutation on the interaction,Variant
1,decreasing interaction strength,MSFPCKFVASFLLIFNVSSKGAVSKEITNALETWGALGQDINLDIPSFQMSDDIDDIKWEKTSDKKKIAQFRKEKETFKEKDTYKLFKNGTLKIKHLKTDDQDIYKVSIYDTKGKNVLEKIFDLKIQERVSKPKISWTCINTTLTCEVMNGTDPELNLYQDGKHLKLSQRVITHKWTTSLSAKFKCTAGNKVSKESSVEPVSCPEKGLDIYLIIGICGGGSLLMVFVALLVFYITKRKKQRSRRNDEELETRAHRVATEERGRKPHQIPASTPQNPATSQHPPPPPGHRSQAPDHRPPPPGHRVQHQPQKRPPAPSGTQVHQQKGPPLPRPRVQPKPPHGAAENSLSPSSN [S294D]
2,decreasing interaction strength,MSFPCKFVASFLLIFNVSSKGAVSKEITNALETWGALGQDINLDIPSFQMSDDIDDIKWEKTSDKKKIAQFRKEKETFKEKDTYKLFKNGTLKIKHLKTDDQDIYKVSIYDTKGKNVLEKIFDLKIQERVSKPKISWTCINTTLTCEVMNGTDPELNLYQDGKHLKLSQRVITHKWTTSLSAKFKCTAGNKVSKESSVEPVSCPEKGLDIYLIIGICGGGSLLMVFVALLVFYITKRKKQRSRRNDEELETRAHRVATEERGRKPHQIPASTPQNPATSQHPPPPPGHRSQAPEHRPPPPGHRVQHQPQKRPPAPSGTQVHQQKGPPLPRPRVQPKPPHGAAENSLSPSSN [S294E]
3,decreasing interaction strength,MSFPCKFVASFLLIFNVSSKGAVSKEITNALETWGALGQDINLDIPSFQMSDDIDDIKWEKTSDKKKIAQFRKEKETFKEKDTYKLFKNGTLKIKHLKTDDQDIYKVSIYDTKGKNVLEKIFDLKIQERVSKPKISWTCINTTLTCEVMNGTDPELNLYQDGKHLKLSQRVITHKWTTSLSAKFKCTAGNKVSKESSVEPVSCPEKGLDIYLIIGICGGGSLLMVFVALLVFYITKRKKQRSRRNDEELETRAHRVATEERGRKPHQIPASTPQNPATSQHPPPPPGHRSQAPSDRPPPPGHRVQHQPQKRPPAPSGTQVHQQKGPPLPRPRVQPKPPHGAAENSLSPSSN [H295D]
4,decreasing interaction strength,MSFPCKFVASFLLIFNVSSKGAVSKEITNALETWGALGQDINLDIPSFQMSDDIDDIKWEKTSDKKKIAQFRKEKETFKEKDTYKLFKNGTLKIKHLKTDDQDIYKVSIYDTKGKNVLEKIFDLKIQERVSKPKISWTCINTTLTCEVMNGTDPELNLYQDGKHLKLSQRVITHKWTTSLSAKFKCTAGNKVSKESSVEPVSCPEKGLDIYLIIGICGGGSLLMVFVALLVFYITKRKKQRSRRNDEELETRAHRVATEERGRKPHQIPASTPQNPATSQHPPPPPGHRSQAPSERPPPPGHRVQHQPQKRPPAPSGTQVHQQKGPPLPRPRVQPKPPHGAAENSLSPSSN [H295E]
5,decreasing interaction strength,MSFPCKFVASFLLIFNVSSKGAVSKEITNALETWGALGQDINLDIPSFQMSDDIDDIKWEKTSDKKKIAQFRKEKETFKEKDTYKLFKNGTLKIKHLKTDDQDIYKVSIYDTKGKNVLEKIFDLKIQERVSKPKISWTCINTTLTCEVMNGTDPELNLYQDGKHLKLSQRVITHKWTTSLSAKFKCTAGNKVSKESSVEPVSCPEKGLDIYLIIGICGGGSLLMVFVALLVFYITKRKKQRSRRNDEELETRAHRVATEERGRKPHQIPASTPQNPATSQHPPPPPGHRSQAPSHAPPPPGHRVQHQPQKRPPAPSGTQVHQQKGPPLPRPRVQPKPPHGAAENSLSPSSN [R296A]
6,decreasing interaction strength,MSFPCKFVASFLLIFNVSSKGAVSKEITNALETWGALGQDINLDIPSFQMSDDIDDIKWEKTSDKKKIAQFRKEKETFKEKDTYKLFKNGTLKIKHLKTDDQDIYKVSIYDTKGKNVLEKIFDLKIQERVSKPKISWTCINTTLTCEVMNGTDPELNLYQDGKHLKLSQRVITHKWTTSLSAKFKCTAGNKVSKESSVEPVSCPEKGLDIYLIIGICGGGSLLMVFVALLVFYITKRKKQRSRRNDEELETRAHRVATEERGRKPHQIPASTPQNPATSQHPPPPPGHRSQAPSHCPPPPGHRVQHQPQKRPPAPSGTQVHQQKGPPLPRPRVQPKPPHGAAENSLSPSSN [R296C]
7,disrupting interaction strength,MSFPCKFVASFLLIFNVSSKGAVSKEITNALETWGALGQDINLDIPSFQMSDDIDDIKWEKTSDKKKIAQFRKEKETFKEKDTYKLFKNGTLKIKHLKTDDQDIYKVSIYDTKGKNVLEKIFDLKIQERVSKPKISWTCINTTLTCEVMNGTDPELNLYQDGKHLKLSQRVITHKWTTSLSAKFKCTAGNKVSKESSVEPVSCPEKGLDIYLIIGICGGGSLLMVFVALLVFYITKRKKQRSRRNDEELETRAHRVATEERGRKPHQIPASTPQNPATSQHPPPPPGHRSQAPSHDPPPPGHRVQHQPQKRPPAPSGTQVHQQKGPPLPRPRVQPKPPHGAAENSLSPSSN [R296D]
8,disrupting interaction strength,MSFPCKFVASFLLIFNVSSKGAVSKEITNALETWGALGQDINLDIPSFQMSDDIDDIKWEKTSDKKKIAQFRKEKETFKEKDTYKLFKNGTLKIKHLKTDDQDIYKVSIYDTKGKNVLEKIFDLKIQERVSKPKISWTCINTTLTCEVMNGTDPELNLYQDGKHLKLSQRVITHKWTTSLSAKFKCTAGNKVSKESSVEPVSCPEKGLDIYLIIGICGGGSLLMVFVALLVFYITKRKKQRSRRNDEELETRAHRVATEERGRKPHQIPASTPQNPATSQHPPPPPGHRSQAPSHEPPPPGHRVQHQPQKRPPAPSGTQVHQQKGPPLPRPRVQPKPPHGAAENSLSPSSN [R296E]
9,decreasing interaction strength,MSFPCKFVASFLLIFNVSSKGAVSKEITNALETWGALGQDINLDIPSFQMSDDIDDIKWEKTSDKKKIAQFRKEKETFKEKDTYKLFKNGTLKIKHLKTDDQDIYKVSIYDTKGKNVLEKIFDLKIQERVSKPKISWTCINTTLTCEVMNGTDPELNLYQDGKHLKLSQRVITHKWTTSLSAKFKCTAGNKVSKESSVEPVSCPEKGLDIYLIIGICGGGSLLMVFVALLVFYITKRKKQRSRRNDEELETRAHRVATEERGRKPHQIPASTPQNPATSQHPPPPPGHRSQAPSHLPPPPGHRVQHQPQKRPPAPSGTQVHQQKGPPLPRPRVQPKPPHGAAENSLSPSSN [R296L]
10,decreasing interaction strength,MSFPCKFVASFLLIFNVSSKGAVSKEITNALETWGALGQDINLDIPSFQMSDDIDDIKWEKTSDKKKIAQFRKEKETFKEKDTYKLFKNGTLKIKHLKTDDQDIYKVSIYDTKGKNVLEKIFDLKIQERVSKPKISWTCINTTLTCEVMNGTDPELNLYQDGKHLKLSQRVITHKWTTSLSAKFKCTAGNKVSKESSVEPVSCPEKGLDIYLIIGICGGGSLLMVFVALLVFYITKRKKQRSRRNDEELETRAHRVATEERGRKPHQIPASTPQNPATSQHPPPPPGHRSQAPSHMPPPPGHRVQHQPQKRPPAPSGTQVHQQKGPPLPRPRVQPKPPHGAAENSLSPSSN [R296M]
11,disrupting interaction strength,MSFPCKFVASFLLIFNVSSKGAVSKEITNALETWGALGQDINLDIPSFQMSDDIDDIKWEKTSDKKKIAQFRKEKETFKEKDTYKLFKNGTLKIKHLKTDDQDIYKVSIYDTKGKNVLEKIFDLKIQERVSKPKISWTCINTTLTCEVMNGTDPELNLYQDGKHLKLSQRVITHKWTTSLSAKFKCTAGNKVSKESSVEPVSCPEKGLDIYLIIGICGGGSLLMVFVALLVFYITKRKKQRSRRNDEELETRAHRVATEERGRKPHQIPASTPQNPATSQHPPPPPGHRSQAPSHRPDPPGHRVQHQPQKRPPAPSGTQVHQQKGPPLPRPRVQPKPPHGAAENSLSPSSN [P298D]
12,disrupting interaction strength,MSFPCKFVASFLLIFNVSSKGAVSKEITNALETWGALGQDINLDIPSFQMSDDIDDIKWEKTSDKKKIAQFRKEKETFKEKDTYKLFKNGTLKIKHLKTDDQDIYKVSIYDTKGKNVLEKIFDLKIQERVSKPKISWTCINTTLTCEVMNGTDPELNLYQDGKHLKLSQRVITHKWTTSLSAKFKCTAGNKVSKESSVEPVSCPEKGLDIYLIIGICGGGSLLMVFVALLVFYITKRKKQRSRRNDEELETRAHRVATEERGRKPHQIPASTPQNPATSQHPPPPPGHRSQAPSHRPEPPGHRVQHQPQKRPPAPSGTQVHQQKGPPLPRPRVQPKPPHGAAENSLSPSSN [P298E]
13,decreasing interaction strength,MSFPCKFVASFLLIFNVSSKGAVSKEITNALETWGALGQDINLDIPSFQMSDDIDDIKWEKTSDKKKIAQFRKEKETFKEKDTYKLFKNGTLKIKHLKTDDQDIYKVSIYDTKGKNVLEKIFDLKIQERVSKPKISWTCINTTLTCEVMNGTDPELNLYQDGKHLKLSQRVITHKWTTSLSAKFKCTAGNKVSKESSVEPVSCPEKGLDIYLIIGICGGGSLLMVFVALLVFYITKRKKQRSRRNDEELETRAHRVATEERGRKPHQIPASTPQNPATSQHPPPPPGHRSQAPSHRPHPPGHRVQHQPQKRPPAPSGTQVHQQKGPPLPRPRVQPKPPHGAAENSLSPSSN [P298H]
14,disrupting interaction strength,MSFPCKFVASFLLIFNVSSKGAVSKEITNALETWGALGQDINLDIPSFQMSDDIDDIKWEKTSDKKKIAQFRKEKETFKEKDTYKLFKNGTLKIKHLKTDDQDIYKVSIYDTKGKNVLEKIFDLKIQERVSKPKISWTCINTTLTCEVMNGTDPELNLYQDGKHLKLSQRVITHKWTTSLSAKFKCTAGNKVSKESSVEPVSCPEKGLDIYLIIGICGGGSLLMVFVALLVFYITKRKKQRSRRNDEELETRAHRVATEERGRKPHQIPASTPQNPATSQHPPPPPGHRSQAPSHRPMPPGHRVQHQPQKRPPAPSGTQVHQQKGPPLPRPRVQPKPPHGAAENSLSPSSN [P298M]
15,disrupting interaction strength,MSFPCKFVASFLLIFNVSSKGAVSKEITNALETWGALGQDINLDIPSFQMSDDIDDIKWEKTSDKKKIAQFRKEKETFKEKDTYKLFKNGTLKIKHLKTDDQDIYKVSIYDTKGKNVLEKIFDLKIQERVSKPKISWTCINTTLTCEVMNGTDPELNLYQDGKHLKLSQRVITHKWTTSLSAKFKCTAGNKVSKESSVEPVSCPEKGLDIYLIIGICGGGSLLMVFVALLVFYITKRKKQRSRRNDEELETRAHRVATEERGRKPHQIPASTPQNPATSQHPPPPPGHRSQAPSHRPNPPGHRVQHQPQKRPPAPSGTQVHQQKGPPLPRPRVQPKPPHGAAENSLSPSSN [P298N]
16,disrupting interaction strength,MSFPCKFVASFLLIFNVSSKGAVSKEITNALETWGALGQDINLDIPSFQMSDDIDDIKWEKTSDKKKIAQFRKEKETFKEKDTYKLFKNGTLKIKHLKTDDQDIYKVSIYDTKGKNVLEKIFDLKIQERVSKPKISWTCINTTLTCEVMNGTDPELNLYQDGKHLKLSQRVITHKWTTSLSAKFKCTAGNKVSKESSVEPVSCPEKGLDIYLIIGICGGGSLLMVFVALLVFYITKRKKQRSRRNDEELETRAHRVATEERGRKPHQIPASTPQNPATSQHPPPPPGHRSQAPSHRPPAPGHRVQHQPQKRPPAPSGTQVHQQKGPPLPRPRVQPKPPHGAAENSLSPSSN [P299A]
